Laboratory results as given in US6379959.

Molecular target: T1, carboxypeptidase A
T1 sequence (P00730 111-419, species assumed, looked up): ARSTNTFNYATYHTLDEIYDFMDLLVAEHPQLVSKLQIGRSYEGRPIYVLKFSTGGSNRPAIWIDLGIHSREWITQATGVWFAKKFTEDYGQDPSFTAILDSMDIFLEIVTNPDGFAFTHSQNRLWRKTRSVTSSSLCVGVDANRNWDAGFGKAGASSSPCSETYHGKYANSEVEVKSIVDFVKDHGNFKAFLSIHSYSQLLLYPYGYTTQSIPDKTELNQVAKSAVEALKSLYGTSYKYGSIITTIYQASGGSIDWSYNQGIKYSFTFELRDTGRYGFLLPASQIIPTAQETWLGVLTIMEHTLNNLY
Assay: carboxypeptidase inhibition (Ki); reference wild PCI

B1: PCIdelY37V38G39 (peptide)
chain: EQHADPICNKPCKTHDDCSGAWFCQACWNSARTCGP
decrease of the inhibitory capacity against the wild form (orders of magnitude): 3
